{
  "source": "paper PMC8278588",
  "about": "“Biodegradation of flonicamid by Ensifer adhaerens CGMCC 6315 and enzymatic characterization of the nitrile hydratases involved” (Microbial Cell Factories, 2021)",
  "system": "N#CCNC(=O)c1cnccc1C(F)(F)F",
  "assay": "purified protein",
  "conditions": "37 °C, 10 min, pH of kinetics not stated, hydration to TFNG-AM",
  "data": [
    {"substance": "CnhA (Ensifer adhaerens)", "values": [
      {"measurement": "Km", "result": 5.07, "unit": "mM"},
      {"measurement": "Vmax", "result": 9.55, "unit": "µmol/min/mg"}
    ]},
    {"substance": "PnhA (Ensifer adhaerens)", "values": [
      {"measurement": "Km", "result": 2.96, "unit": "mM"},
      {"measurement": "Vmax", "result": 88.7, "unit": "µmol/min/mg"}
    ]}
  ]
}
